# Test results reported in patent publication US20090228996A1, “Means and Methods for influencing Interactions Between Dc-Sign and Dc-Sign Ligands” (priority 2006, published 2009).
# T1: DC-SIGN-Fc (Homo sapiens, UniProt Q9NNX6)
# T1 construct: the extracellular portion of DC-SIGN (amino acids 64 to 404)
# T1 sequence (Q9NNX6 64-404): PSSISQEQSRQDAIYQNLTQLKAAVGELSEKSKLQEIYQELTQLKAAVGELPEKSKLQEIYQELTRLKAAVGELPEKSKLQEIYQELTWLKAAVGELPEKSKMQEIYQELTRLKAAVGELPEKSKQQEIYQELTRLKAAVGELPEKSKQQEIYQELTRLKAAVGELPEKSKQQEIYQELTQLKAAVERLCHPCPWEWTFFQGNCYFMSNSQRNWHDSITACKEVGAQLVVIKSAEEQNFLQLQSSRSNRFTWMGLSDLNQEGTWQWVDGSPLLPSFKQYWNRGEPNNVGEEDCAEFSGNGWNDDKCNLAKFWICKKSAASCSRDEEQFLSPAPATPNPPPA
# Assays:
# [1] = molecular target: T1, DC-SIGN-Fc; experiment: DC-SIGN-Fc binding ELISA
# Protocol: DC-SIGN-Fc binding ELISA. The DC-SIGN-Fc chimera contained the extracellular portion of DC-SIGN (amino acids 64 to 404) fused at the C-terminus to a human immunoglobulin (Ig) G1 Fc fragment and has been previously described (Geijtenbeek et al, 2002). Human milk or human milk compounds were diluted in 0.2M NaHCO3, coated on ELISA plates (maxisorb plate; Nunc) and incubated overnight at 4° C. or 2 hours at 37° C. This was followed by blocking with TSM containing 1% BSA for 30 minutes at 37° C. before addition of soluble DC-SIGN-Fc (5 μg/ml) for 2 hours at RT, the binding was determined by incubation of a peroxidase labeled anti-IgG1 antibody for 30 minutes at RT. DC-SIGN-Fc binding specificity was determined by pre-incubation of the DC-SIGN-FC with either 50 μg/ml DC-SIGN specific mouse antibody AZN-D1 (Geijtenbeek et al, 2000 a) or 10 mM EGTA. Single-cycle-replication transmission assay. The assay was performed as previously described (Groot et al, 2005). In short mDCs and iDCs were incubated in a 96-well-plate (35−50×10^3 DC/well) with human milk for 30 minutes at 37° C. before addition of the virus (5 ng p24/well), which was incubated for 2 hours at 37° C. The DCs were washed twice with PBS before addition of 50×10^3 LuSIV cells. After 24 hours, LuSIV cells were harvested and resuspended in 50 μl lysis buffer (25 mM Tris-Cl 7.8, 2 mM DTT, 2 mM CDTA, 10% glycerol, 1% Triton X100). The cells were then incubated for 45 minutes at room temperature while shaking, followed by 10 minutes centrifugation at 3200×g. The supernatant was transferred to a white-solid 96 well plate (Corning Costar), and 150 μl of lucibuffer (100 μg/ml BSA, 6.6 mM ATP, 15 mM MgSO4, 25 mM glycylglycine) was added. 100 μl of DE(−)Luciferin (Roche Diagnostics GmbH) was injected per well (0.28 mg/ml lucibuffer excluding ATP). 50×10^3 LuSIV cells grown without DC or HIV-1 were used to obtain the background luciferase value.
# DC-SIGN-Fc binding ELISA. The DC-SIGN-Fc chimera contained the extracellular portion of DC-SIGN (amino acids 64 to 404) fused at the C-terminus to a human immunoglobulin (Ig) G1 Fc fragment which has been previously described (Geijtenbeek et al, 2002). Human milk or BSSL were diluted in 0.2 M NaHCO3, coated on ELISA plates (maxisorb plate; Nunc) and incubated overnight at 4° C. or 2 hours at 37° C. This was followed by blocking with TSM containing 1% BSA for 30 minutes at 37° C. before addition of soluble DC-SIGN-Fc (5 μg/ml) for 2 hours at RT, the binding was determined by incubation of a peroxidase labeled anti-IgG1 antibody for 30 minutes at RT. DC-SIGN-Fc binding specificity was determined by pre-incubation of the DC-SIGN-Fc with either 50 μg/ml DC-SIGN specific mouse antibody AZN-D1 (Geijtenbeek et al, 2000 a) or 10 mM EGTA.
# [2] = tested on: DC-SIGN mediated transfer of HIV-1 by Raji-DC-SIGN cells to CD4+ T-lymphocytes; experiment: DC-SIGN mediated HIV-1 transfer assay (Raji-DC-SIGN transfer culture assay); format: cell-based; details: BSSL isolated from S4, at 30 μg/ml and 1.2 μg/ml; P<0.05
# Protocol: DC-SIGN mediated HIV-1 transfer assay. The Raji and Raji-DC-SIGN cells were plated at a concentration of 2×10^4 cells/well in a 96 well format. Dilutions of human milk or human milk compounds were made in PBS containing 10% FCS and spiked with 3.7log TCID50/ml of the appropriate virus before addition to the Raji-DC-SIGN cells. As controls PBS containing 10% FCS was spiked with the same TCID50/ml of the corresponding virus before addition to Raji or Raji-DC-SIGN cells. After incubation the culture was washed with PBS before addition of CD4^+ enriched T-lymphocytes at a concentration of 1×10^5 cells/well with p24 determined on day 7. DC-SIGN specific antibody binding after exposure to human milk. […] The cells were washed and resuspended in 100 μl TSM containing 0.5% bovine serum albumin, (BSA Fraction V, Fatty Acid-Free) (Calbiochem) and the adhesion was measured by flow cytometry (BD Biosciences).
# DC-SIGN mediated HIV-1 transfer assay. […] After a two hour incubation the culture was washed with PBS before addition of CD4^+ enriched T-lymphocytes at a concentration of 1×10^5 cells/well with p24 values determined on day 7.
molecule,measurement,setting,value
"BSSL: Bile salt stimulated lipase glycoprotein isolated from human milk (S4) (protein, UniProt P19835 21-753, looked up) Bile salt-activated lipase: AKLGAVYTEGGFVEGVNKKLGLLGDSVDIFKGIPFAAPTKALENPQPHPGWQGTLKAKNFKKRCLQATITQDSTYGDEDCLYLNIWVPQGRKQVSRDLPVMIWIYGGAFLMGSGHGANFLNNYLYDGEEIATRGNVIVVTFNYRVGPLGFLSTGDANLPGNYGLRDQHMAIAWVKRNIAAFGGDPNNITLFGESAGGASVSLQTLSPYNKGLIRRAISQSGVALSPWVIQKNPLFWAKKVAEKVGCPVGDAARMAQCLKVTDPRALTLAYKVPLAGLEYPMLHYVGFVPVIDGDFIPADPINLYANAADIDYIAGTNNMDGHIFASIDMPAINKGNKKVTEEDFYKLVSEFTITKGLRGAKTTFDVYTESWAQDPSQENKKKTVVDFETDVLFLVPTEIALAQHRANAKSAKTYAYLFSHPSRMPVYPKWVGADHADDIQYVFGKPFATPTGYRPQDRTVSKAMIAYWTNFAKTGDPNMGDSAVPTHWEPYTTENSGYLEITKKMGSSSMKRSLRTNFLRYWTLTYLALPTVTDQEATPVPPTGDSEATPVPPTGDSETAPVPPTGDSGAPPVPPTGDSGAPPVPPTGDSGAPPVPPTGDSGAPPVPPTGDSGAPPVPPTGDSGAPPVPPTGDSGAPPVPPTGDSGAPPVPPTGDAGPPPVPPTGDSGAPPVPPTGDSGAPPVTPTGDSETAPVPPTGDSGAPPVPPTGDSEAAPVPPTDDSKEAQMPAVIRF",DC-SIGN-Fc binding,"[1]; BSSL at 30 μg/ml, 3 μg/ml and 0.3 μg/ml, P<0.01",binding
same,effect of trypsinization of purified BSSL,"[1]; binding not fully alleviated, data not shown",trypsin sensitive
same,effect of heat treatment of purified BSSL,[1]; data not shown,heat resistant
same,inhibition of DC-SIGN mediated HIV-1 transfer,[2],significant inhibition
